Data reported in the MegaScale stability set (Tsuboyama et al. 2023).

B1: r11_951_TrROS_Hall (parent)
chain: KKKYVIKVYFEDTGKEVEIEAESKEEALEAAKRLAEELGLKIKKVEIYP

Variants of: B1
Assay: folding stability dG (cDNA display proteolysis); higher = more stable
Details: PBS, room temperature

Folding stability dG [kcal/mol], by site and new letter:
G39: L 4.06 | R 4.43 | C 4.25 | V 4.03 | N 4.39 | Y 3.82 | W 3.5 | D 3.99 | F 4.14 | I 3.67 | S 4.26 | A 4.49 | E 4.18 | M 4.38 | K 4.53 | P 2.73 | H 4.31 | Q 4.37 | T 4
K41: L 4.36 | W 4.11 | G 4.07 | S 4.41 | R 4.62 | A 4.33 | P 4.25 | D 4 | Y 4.5 | H 4.22 | E 4.16 | I 4.19 | T 4.32 | Q 4.02 | M 4.38 | N 4.28 | V 4.34 | C 4.33 | F 4.44
L38: C 4.07 | I 4.29 | A 4.52 | Q 4.21 | Y 4.53 | N 4.15 | D 3.39 | G 3.85 | W 4.52 | H 4.13 | P 2.86 | E 3.89 | V 4.3 | K 4.2 | M 4.56 | F 4.42 | R 4.34 | S 4.28 | T 4.16
K43: W 4.81 | S 4.15 | P 2.93 | I 4.43 | C 4.13 | F 4.53 | D 4.29 | M 4.44 | G 4.25 | A 4.4 | N 4.29 | Q 4.26 | L 4.36 | R 4.64 | E 4.35 | V 4.22 | H 4.33 | T 4.32
A35: G 4.25 | D 2.58 | N 3.14 | W 4.13 | I 3.99 | H 3.63 | K 3.58 | P 2.83 | Q 3.9 | F 4.13 | M 3.97 | S 4.35 | E 4.05 | L 3.88 | C 4.08 | V 4.06 | T 3.84 | Y 3.78 | R 3.55
K44: A 4.26
L40: C 3.95 | Q 4.07 | E 3.99 | S 3.9 | N 3.66 | A 4.02 | D 3.85 | Y 4.88 | R 4.27 | K 3.93 | P 3.02 | F 4.6 | W 4.72 | I 3.96 | H 4.12 | G 3.56 | V 4.1 | T 3.92 | M 4.31
E37: L 4.55 | V 4.6 | Y 4.82 | N 4.42 | S 4.71 | T 4.61 | K 4.68 | H 4.72 | C 4.94 | Q 4.77 | A 4.67 | I 4.61 | G 4.55 | D 4.29 | F 4.73 | P 2.86 | M 4.67 | R 4.69
E36: Q 4.66 | P 3.05 | F 4.76 | M 4.66 | D 4.42 | L 4.68 | C 4.39 | S 4.53 | V 4.66 | T 4.6 | K 4.54 | I 4.61 | R 4.91 | G 4.6 | A 4.62 | H 4.56
I42: C 3.57 | K 2.18 | F 4.01 | D 2.38 | T 2.88 | M 3.99 | N 2.55 | A 3.21 | S 2.64 | Y 3.75 | R 2.53 | E 2.5 | W 4.05 | Q 2.53 | L 4.32 | V 4.17 | G 2.51 | H 2.67 | P 3.23
